B1: Islet amyloid polypeptide (Homo sapiens), P10997 (parent)
chain: MGILKLQVFLIVLSVALNHLKATPIESHQVEKRKCNTATCATQRLANFLVHSSNNFGAILSSTNVGSNTYGKRNAVEVLKREPLNYLPL

Variants of: B1
Conditions: with bace1_human BACE1, P56817
bace1_human BACE1, P56817, sequence (P56817 whole entry): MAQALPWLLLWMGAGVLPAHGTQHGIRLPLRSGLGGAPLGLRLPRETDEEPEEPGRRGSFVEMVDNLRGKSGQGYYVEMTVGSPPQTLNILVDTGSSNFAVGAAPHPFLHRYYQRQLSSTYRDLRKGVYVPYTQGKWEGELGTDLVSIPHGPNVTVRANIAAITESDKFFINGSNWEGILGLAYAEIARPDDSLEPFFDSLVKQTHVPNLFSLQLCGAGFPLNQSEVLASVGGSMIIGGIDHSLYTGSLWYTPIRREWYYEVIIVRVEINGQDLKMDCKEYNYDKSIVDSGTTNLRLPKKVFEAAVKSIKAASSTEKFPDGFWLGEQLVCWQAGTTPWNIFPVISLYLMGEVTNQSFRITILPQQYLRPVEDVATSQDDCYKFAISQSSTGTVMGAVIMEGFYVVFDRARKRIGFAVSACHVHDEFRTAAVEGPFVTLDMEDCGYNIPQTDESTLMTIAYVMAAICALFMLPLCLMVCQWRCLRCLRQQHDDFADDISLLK

effect of a mutation on the interaction	Variant
with no effect	MGILKLQVFLIVLSVALNHLKATPIESHQVEKRKCNTATCATQRLANFLVHSSNNKGAILSSTNVGSNTYGKRNAVEVLKREPLNYLPL

From IntAct's records for PubMed 26840340
